One test deals with HLA-A*01:01. Briefly: IEDB peptide-MHC binding, purified MHC/direct/fluorescence; filed as Kd, often an IC50 or EC50 that approximates it; ≥ and ≤ were set here for values at or beyond the usual limits of such assays.
The target in another test is HLA-A*02:01. Described as above.
A further test concerns the target HLA-A*03:01. The test is described as above.
The next test deals with HLA-A*11:01. The test is described as above.
Another test has as its target HLA-A*24:03. Described as above.
In test [1] the target is HLA-A*26:01. Described as above.
In a further test the target is HLA-A*30:01. The test is described as above.
The next test concerns the target HLA-B*07:02. Described as above.
The next test has as its target HLA-B*08:01. Described as above.
For another test, the target named is HLA-B*15:01. Described as above.
The next test deals with HLA-B*27:05. The test is described as above.
Another test addresses HLA-B*40:01. The test is described as above.
The target in a further test is HLA-B*58:01. The test is described as above.
Test [2] concerns the target HLA-A*23:01. Described as above.
The target of a further test is HLA-A*24:02. The description is as above.
Test [3] addresses HLA-A*23:01. The experiment in a line: IEDB peptide-MHC binding, purified MHC/competitive/fluorescence; filed as Kd, often an IC50 or EC50 that approximates it; ≥ and ≤ were set here for values at or beyond the usual limits of such assays. As to conditions: source organism: Bacillus cereus ATCC 14579.
In another test the target is HLA-A*02:11. The experiment in a line: IEDB peptide-MHC binding, purified MHC/direct/fluorescence; filed as Kd, often an IC50 or EC50 that approximates it; ≥ and ≤ were set here for values at or beyond the usual limits of such assays. The following applies: source organism: Zaire ebolavirus.
Another test has as its target HLA-A*02:12. The description is as above. The following applies: source organism: Zaire ebolavirus.
For a further test, the target named is HLA-A*29:02. The test is described as above. As to conditions: source organism: Sudan ebolavirus - Maleo (1979).
In another test the target is HLA-A*31:01. Described as above.
The next test addresses HLA-A*68:02. Described as above. As to conditions: source organism: Zaire ebolavirus.
The next test has as its target HLA-A*69:01. Described as above.
The next test has as its target HLA-B*18:01. Described as above. The following applies: source organism: Sudan ebolavirus - Maleo (1979).
A further test concerns the target HLA-B*44:02. The description is as above.
A further test concerns the target HLA-B*46:01. Described as above.
A further test has as its target HLA-B*57:01. The test is described as above. As to conditions: source organism: Sudan ebolavirus - Maleo (1979).
Test [4] deals with HLA-A*26:01. The experiment in a line: IEDB peptide-MHC binding, purified MHC/competitive/fluorescence; filed as Kd, often an IC50 or EC50 that approximates it; ≥ and ≤ were set here for values at or beyond the usual limits of such assays. As to conditions: source organism: Zaire ebolavirus.
The next test concerns the target HLA-B*15:17. The test is described as above. As to conditions: source organism: Zaire ebolavirus.
A further test deals with HLA-B*27:03. Described as above. The following applies: source organism: Zaire ebolavirus.
The target in the next test is HLA-B*39:01. The test is described as above. The following applies: source organism: Zaire ebolavirus.
The next test has as its target HLA-B*51:01. Described as above. The following applies: source organism: Zaire ebolavirus.
Another test has as its target HLA-C*05:01. Briefly: IEDB peptide-MHC binding, purified MHC/direct/fluorescence; filed as Kd, often an IC50 or EC50 that approximates it; ≥ and ≤ were set here for values at or beyond the usual limits of such assays. As to conditions: source organism: Giardia intestinalis.
The mark [5] stands for this setting: source organism: Corynebacterium glutamicum.
Setting [6] is: source organism: Dengue virus 1 Singapore/S275/1990.
Setting [7] is: source organism: Sudan ebolavirus - Maleo (1979).
Setting [8] is: source organism: Zaire ebolavirus.
Setting [9] is: source organism: Orthohantavirus hantanense.
[10] abbreviates: source organism: Aggregatibacter actinomycetemcomitans.
[11] abbreviates: source organism: Yersinia pestis Antiqua.
[12] abbreviates: source organism: Yersinia pestis.
Where [13] appears, read: source organism: Giardia lamblia ATCC 50803.

The Kd is the equilibrium constant for the complex coming apart. Low values mean tighter binding, high ones weaker binding.

Turning to ATQPVHWFL, the Kd with HLA-A*01:01 (setting [5]) was 3130 nM; in the test with HLA-A*02:01 (setting [5]) it was 0.115 µM; with HLA-A*03:01 (setting [5]) it was at least 20 µM; with HLA-A*11:01 (setting [5]) it was 0.021 µM; in the test with HLA-A*24:03 (setting [5]) it was 4.44 nM; in the test with HLA-A*26:01 [1] (setting [5]), at least 20 µM. Moreover, the Kd with HLA-A*30:01 (setting [5]) was 31.7 nM; with HLA-B*07:02 (setting [5]) it was 6.67 µM; with HLA-B*08:01 (setting [5]) it was at least 20 µM; with HLA-B*15:01 (setting [5]), at least 20 µM; with HLA-B*27:05 (setting [5]), at least 20 µM; with HLA-B*40:01 (setting [5]), at least 20 µM. The same sequence came in with a Kd with HLA-B*58:01 (setting [5]) of 444 nM.
Take GFMNEDHWF: the figures for the Kd with HLA-A*23:01 [2] (setting [6]) and with HLA-A*24:02 (setting [6]) were 46 nM and 90 nM, respectively.
For the sequence LYSLWTKRK, the equilibrium dissociation constant (Kd) with HLA-A*23:01 [3] was 245 nM.
On to MHYKLDEVL, for which the Kd in the test with HLA-A*01:01 (setting [7]) was at least 20000 nM; with HLA-A*02:01 (setting [7]) it was at least 20 µM; with HLA-A*02:11, at least 20 µM; in the test with HLA-A*02:12, at least 20 µM; in the test with HLA-A*03:01 (setting [7]) it was at least 20 µM; with HLA-A*11:01 (setting [7]) it was at least 20 µM. Besides, the Kd in the test with HLA-A*23:01 [2] (setting [8]) is at least 20000 nM; with HLA-A*24:03 (setting [8]), at least 20000 nM; in the test with HLA-A*29:02, at least 20 µM; with HLA-A*31:01 (setting [7]) it was at least 20 µM; with HLA-A*68:02, at least 20 µM; with HLA-A*69:01 (setting [7]), at least 20 µM. Besides, the Kd with HLA-B*07:02 (setting [7]), in the test with HLA-B*08:01 (setting [7]), with HLA-B*15:01 (setting [7]), with HLA-B*18:01, in the test with HLA-B*27:05 (setting [7]) and with HLA-B*40:01 (setting [7]) was at least 20 µM in each case. In addition, the Kd with HLA-B*44:02 (setting [7]) was at least 20 µM; with HLA-B*46:01 (setting [7]), at least 20 µM; with HLA-B*57:01, at least 20 µM; with HLA-B*58:01 (setting [7]), at least 20000 nM; with HLA-A*26:01 [4], at least 20 µM; with HLA-B*15:17, at least 20 µM. Moreover, the Kd with HLA-B*27:03 was at least 20 µM; with HLA-B*39:01, 4.1 nM; in the test with HLA-B*51:01, at least 20 µM.
With NYYAPRIQF, the Kd with HLA-A*23:01 [2] (setting [9]) was 5.9 nM; in the test with HLA-A*24:03 (setting [9]) it was 7.4 nM; with HLA-A*30:01 (source organism: Hantaan virus Q32) it was at least 20000 nM.
On to RSEVELCIY, for which the Kd in the test with HLA-A*01:01 (setting [10]) is 111 nM; with HLA-A*02:01 (setting [10]), at least 20 µM; in the test with HLA-A*03:01 (setting [10]), at least 20 µM; in the test with HLA-A*11:01 (setting [10]) it was at least 20 µM; in the test with HLA-A*24:03 (setting [10]), at least 20000 nM; with HLA-A*26:01 [1] (setting [10]) it was at least 20 µM. Also, the Kd with HLA-A*30:01 (setting [10]) was at least 10000 nM; with HLA-A*31:01 (setting [10]), at least 20 µM; with HLA-A*69:01 (setting [10]), at least 20 µM; with HLA-B*07:02 (setting [10]), at least 20 µM; in the test with HLA-B*08:01 (setting [10]), at least 20 µM; with HLA-B*15:01 (setting [10]), 6.28 µM. Further, the Kd with HLA-B*27:05 (setting [10]) is at least 20 µM; with HLA-B*40:01 (setting [10]), at least 20 µM; with HLA-B*58:01 (setting [10]), 663 nM.
Take RYQRMTGGY: the Kd was at least 20000 nM with HLA-A*01:01 (setting [11]); at least 20 µM with HLA-A*02:01 (setting [11]); at least 20 µM in the test with HLA-A*03:01 (setting [11]); 6.21 nM with HLA-A*24:03 (setting [12]); at least 20 µM with HLA-A*26:01 [1] (setting [11]); 2340 nM with HLA-A*30:01 (setting [12]). For the same sequence, the Kd in the test with HLA-A*31:01 (setting [12]) is 0.388 µM; with HLA-A*69:01 (setting [11]), at least 20 µM; with HLA-B*07:02 (setting [11]), at least 20 µM; with HLA-B*08:01 (setting [11]), at least 20 µM; with HLA-B*15:01 (setting [12]) it was 1.35 µM; in the test with HLA-B*27:05 (setting [12]) it was 2.93 µM. Further, the Kd was at least 20 µM with HLA-B*40:01 (setting [11]) and at least 20000 nM in the test with HLA-B*58:01 (setting [11]).
For the sequence WSDLNTTDF, the Kd was 156 nM in the test with HLA-A*01:01 (setting [13]); at least 20 µM with HLA-A*02:01 (setting [13]); at least 20 µM with HLA-A*03:01 (setting [13]); at least 20 µM with HLA-A*11:01 (setting [13]); at least 20000 nM with HLA-A*24:02 (setting [13]); at least 20 µM with HLA-A*31:01 (setting [13]). The Kd with HLA-B*07:02 (setting [13]), with HLA-B*15:01 (setting [13]), with HLA-B*27:05 (setting [13]), in the test with HLA-B*40:01 (setting [13]), in the test with HLA-B*44:02 (setting [13]) and with HLA-B*46:01 (setting [13]) was at least 20 µM each time. For the same sequence, the Kd with HLA-B*58:01 (setting [13]) was at least 20000 nM; with HLA-C*05:01 it was at most 1 nM.

(Values after the Immune Epitope Database (IEDB).)
